Assay results published in patent CN118076384A (SPARKS BIOSCIENCE INC, dated 2024).

B1: 抗PDL1单克隆抗体12A4bad (antibody, V domains shown)
VH: QVQLVQSGAEVKKPGSSVKVSCKTSGDTFSTYAISWVRQAPGQGLEWMGGIIPLFGKAHYAQKFQGRVTITADESTSTAYMELSSLRSEDTAVYFCARKFHFVRGSPFGMDVWGQGTTVTVSS
VL: EIVLTQSPATLSLSPGERATLSCRASQSVSSYLAWYQQKPGQAPRLLIYDASNRAPGIPARFSGSGSGTDFTLTISSLEPEDFAVYYCQQRSNWPTFGQGTKVEIK
B2: 12A4bad (Fab displayed on phage) (Fab, V domains shown)
VH: QVQLVQSGAEVKKPGSSVKVSCKTSGDTFSTYAISWVRQAPGQGLEWMGGIIPLFGKAHYAQKFQGRVTITADESTSTAYMELSSLRSEDTAVYFCARKFHFVRGSPFGMDVWGQGTTVTVSS
VL: EIVLTQSPATLSLSPGERATLSCRASQSVSSYLAWYQQKPGQAPRLLIYDASNRAPGIPARFSGSGSGTDFTLTISSLEPEDFAVYYCQQRSNWPTFGQGTKVEIK
B3: 12A4a (Fab displayed on phage) (Fab, V domains shown)
VH: QVQLVQSGAEVKKPGSSVKVSCKTSGDTFSTYAISWVRQAPGQGLEWMGGIIPIFGKAHYAQKFQGRVTITADESTSTAYMELSSLRSEDTAVYFCARKFHFVSGSPFGMDVWGQGTTVTVSS
VL: EIVLTQSPATLSLSPGERATLSCRASQSVSSYLAWYQQKPGQAPRLLIYDASNRAPGIPARFSGSGSGTDFTLTISSLEPEDFAVYYCQQRSNWPTFGQGTKVEIK
B4: 12A4bd (Fab displayed on phage) (Fab, V domains shown)
VH: QVQLVQSGAEVKKPGSSVKVSCKTSGDTFSTYAISWVRQAPGQGLEWMGGIIPLFGKAHYAQKFQGRVTITADESTSTAYMELSSLRSEDTAVYFCARKFHFVRGSPFGMDVWGQGTTVTVSS
VL: not shown

Assays:
[1] = biological target: T1, PDL1 on MDA MB-231 human breast cancer cells (human, UniProt Q9NZQ7 19-290); test: flow cytometry on MDA MB-231 cells, anti-human IgG Fc secondary antibody
T1 construct: whole, on cells; also called 表达PD-L1的肿瘤细胞

[2] = biological target: PDL1 on PDL1 aAPC/CHOK1 cells (UniProt Q9NZQ7 19-290, limits assumed); test: cell-based or functional assay
[3] = biological target: T2, 人PD-L1 (recombinant protein of the phage ELISA) (human, UniProt Q9NZQ7 19-239, limits assumed); test: competitive phage ELISA, ratio to parental clone 12A4
T2 construct: also called CD274; B7同源物1

[4] = biological target: T2, 人PD-L1 (recombinant protein of the …); test: competitive phage ELISA, Fab on phage, soluble PD-L1 against coated PD-L1

Row | Binder | Kd [1] [nM] | EC50 of luminescence in the PDL1/PD1 blockade bioassay [2] [nM] | 相对于12A4亲本克隆的改善 [3] [fold] | Kd [4] [nM]
1 | B1 | 0.0778 | 0.344 | – | –
2 | B2 | – | – | 7.5 | 1.5
3 | B3 | – | – | 1.3 | 8.3
4 | B4 | – | – | 6.3 | 1.8
